# Laboratory results published in US20130078216A1 (published 2013).
# Numbering of substitutions follows the chain as printed. Numbers in names are those of the source.
# T1: mouse ASGPR on the murine liver cell line Hepa1c1c7 (and on mouse liver in vivo) (mouse, UniProt P34927 1-284)
# T1 sequence (looked up): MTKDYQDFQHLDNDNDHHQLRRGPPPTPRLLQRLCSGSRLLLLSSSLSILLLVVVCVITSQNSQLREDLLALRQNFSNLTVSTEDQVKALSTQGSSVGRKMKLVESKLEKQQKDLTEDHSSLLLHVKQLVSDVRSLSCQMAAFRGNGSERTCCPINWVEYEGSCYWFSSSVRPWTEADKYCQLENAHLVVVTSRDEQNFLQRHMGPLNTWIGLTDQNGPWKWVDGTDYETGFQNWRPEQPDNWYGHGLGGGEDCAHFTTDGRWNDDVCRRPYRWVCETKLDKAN
# T2: (His)6-Human ASGPR H1 Stalk Domain (human, UniProt P07306 62-153)
# T2 construct: Biotinylated and immobilised on a streptavidin chip; also called human (His)6-ASGPR H1 stalk domain; (His)6-human ASGPR H1 stalk domain residues glutamine 62-cysteine 153
# T2 sequence: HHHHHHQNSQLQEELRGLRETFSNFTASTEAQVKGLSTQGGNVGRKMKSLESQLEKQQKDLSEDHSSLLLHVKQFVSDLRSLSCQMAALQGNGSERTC
# T3: (His)6-Human ASGPR H1 Lectin Domain (human, UniProt P07306 154-291)
# T3 construct: Biotinylated and immobilised on a streptavidin chip; also called human (His)6-ASGPR H1 lectin domain; human (His)6 lectin domain
# T3 sequence: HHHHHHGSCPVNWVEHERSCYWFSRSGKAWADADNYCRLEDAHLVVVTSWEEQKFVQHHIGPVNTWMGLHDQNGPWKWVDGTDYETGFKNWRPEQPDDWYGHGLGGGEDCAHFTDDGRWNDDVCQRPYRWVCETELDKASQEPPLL
# T4: (His)6-Human ASGPR H1 (human, UniProt P07306 62-291)
# T4 construct: Expressed in HEK293E, Ni-NTA purified; coated on a CM5 chip or biotinylated and captured on a streptavidin chip; The entry includes the His tag; also called human (His)6-ASGPR H1; Human (His)6 ASGPR H1 Q62-L291
# T4 sequence: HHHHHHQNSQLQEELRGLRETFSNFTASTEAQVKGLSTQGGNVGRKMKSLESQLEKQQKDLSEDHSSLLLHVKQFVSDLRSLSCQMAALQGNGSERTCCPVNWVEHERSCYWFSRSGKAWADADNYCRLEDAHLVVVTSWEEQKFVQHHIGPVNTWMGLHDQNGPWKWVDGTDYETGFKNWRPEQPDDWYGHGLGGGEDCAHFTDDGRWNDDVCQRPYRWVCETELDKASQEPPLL
# T5: (His)6-Mouse ASGPR H1 (mouse, UniProt P34927 61-284)
# T5 construct: Expressed in HEK293E, Ni-NTA purified; coated on a CM5 chip or biotinylated and captured on a streptavidin chip; The entry includes the His tag; also called mouse (His)6-ASGPR H1; mouse (His)6-ASGPR H1 extracellular domain
# T5 sequence: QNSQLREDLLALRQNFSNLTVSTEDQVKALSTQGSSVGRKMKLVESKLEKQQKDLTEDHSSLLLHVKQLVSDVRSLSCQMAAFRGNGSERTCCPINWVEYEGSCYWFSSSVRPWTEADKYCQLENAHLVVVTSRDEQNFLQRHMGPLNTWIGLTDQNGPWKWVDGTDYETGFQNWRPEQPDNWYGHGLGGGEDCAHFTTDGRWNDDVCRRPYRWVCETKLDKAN
# B1: DOM26m-33 carrying the point mutation S116C, DOTA-Maleimide conjugated and 111In labelled (other)
# VH: EVQLLESGGGLVQPGGSLRLSCAASGFTFAKYDMIWVRQAPGKGLEWVSGINHSGSRTYYADSVKGRFTISRDNSKNMLYLQMNSLRAEDTAVYYCAKSGSSFDYWGQGTLVTVSC
# modifications: DOTA-Maleimide on the C-terminal cysteine (S116C), labelled with 111In
# B2: DOM26h-196-61 (other, not shown: small tags and cut ends)
# VH: EVQLLESGGGLVQPGGSLRLSCAASGFTFEKYAMAWVRQAPGKGLEWVSRISARGVTTYYADSVKGRFTISRDNSKNTLYLQMNSLRAEDTAVYYCAKHKRHEHTRFDSWGQGTLVTVSS
# B3: DOM26h-196 (other, not shown: small tags and cut ends)
# VH: B2 VH with A53M, R54A, V56M, R101K, H102S, E103A
# notes: human VH domain antibody (dAb)
# B4: DOM26h-161-84 (other, not shown: small tags and cut ends)
# VL: DIQMTQSPSSLSASVGDRVTITCRASQAIGRWLLWYQQKPGKAPKLLIGPGSRLRSGVPSRFSGSGSGTDFTLTISSLQPEDFVTYYCQQAYAWPPTFGQGTKVEIKR
# B5: DOM26m-20 (other, not shown: small tags and cut ends)
# VL: DIQMTQSPSSLSASVGDRVTITCRASKYIGSDLYWYQQKPGKAPKLLIGGGSRLQSGVSSRFSGSGSGTDFTLTISSLQPEDFATYYCGQKWARPLTFGQGTKVEIKR
# notes: human Vκ domain antibody (dAb) selected on mouse ASGPR H1; also called Vκ dAb DOM26m-20
# B6: DOM26h-61 (other, not shown: small tags and cut ends)
# VH: EVQLLESGGGLVQPGGSLRLSCAASGFTFSTYPMHWARQAPGKGLEWVSSISPSGDSTYYADSVKGRFTISRDNSKNTLYLQMNSLRAEDTAVYYCAKNALRFDYWGQGTLVTVSS
# notes: human VH domain antibody (dAb); also called VH dAb DOM26h-61
# B7: DOM26m-7 (other, not shown: small tags and cut ends)
# VH: EVQLLESGGGLVQPGGSLRLSCAASGFTFDDYEMGWVRQAPGKGLEWVSLISAQGRVTYYADSVKGRFTISRDNSKNTLYLQMNSLRAEDTAVYYCAKNSPSYLLNFDYWGQGTLVTVSS
# notes: human VH domain antibody (dAb) selected on mouse ASGPR H1
# B8: DOM26m-29 (other, not shown: small tags and cut ends)
# VH: EVQLLESGGGLVQPGGSLRLSCAASGFTFEDSGMIWARQAPGKGLEWVSGIASEGSTTYYADSVKGRFTISRDNSKNTLYLQMNSLRAEDTAVYYCAKSGLSFDYWGQGTLVTVSS
# notes: as for B7
# B9: DOM26m-50 (other, not shown: small tags and cut ends)
# VL: DIQMTQSPSSLSASVGDRVTITCRASISIYEHLNWYQQKPGKAPTLLIWDSSGLQSGVPSRFSGSGSGTDFTLTISSLQPEDFATYYCVQHHSHPPTFGQGTKVEIKR
# notes: human Vκ domain antibody (dAb) selected on mouse ASGPR H1
# B10: DOM26m-54 (other, not shown: small tags and cut ends)
# VL: DIQMTQSPSSLSASVGDRVTITCRASLNIDTDLVWYQQKPGKAPKLLIAGWSGLQSGVPSRFSGSGSGTDFTLTISSLQPEDFATYYCGQFAREPFTFGQGTKVEIKR
# notes: as for B9
# B11: DOM26m-58 (other, not shown: small tags and cut ends)
# VL: DIQMTQSPSSLSASVGDRVTITCRASQPIRNALTWYQQKPGKAPKLLIYRTSHLQSGVPSRFSGSGSGTDFTLTISSLQPEDFATYYCQQTWTMPLTFGQGTKVEIKR
# notes: as for B9
# B12: DOM26h-210-2 (other, not shown: small tags and cut ends)
# VH: ELQLLEFGGGLVQPGGSLRLSCTTSGFTFSRYTMGWVRQAPGKGLEWVSAIGPPGSNTYYADSVKGRFTISRDNSKNTLYLQMNSLRAEDTAVYYCAKWVMLRGRFDYWGQGTLVTVSS
# B13: DOM26h-220-1 (other, not shown: small tags and cut ends)
# VH: EVQLLESGGGLVQPGGSLRLSCAASGFTFEDYGMGWVRQAPGKGLEWVSAIGRNGSQTYYADSVKGRFTISRDNSKNTLYLQMNSLRAEDTAVYYCAKLRRGRGLNTFTLDYWGQGTLVTVSS
# Legend:
# [1] = molecular target: T1, mouse ASGPR on the murine liver cell …; assay: cell-based or functional assay
# [2] = molecular target: T2, (His)6-Human ASGPR H1 Stalk Domain; assay: BIAcore, biotinylated stalk domain on a streptavidin chip, flow 40 µl/min
# From the text: (§1) To assay for potential dAb binding activity human (His)₆-ASGPR H1 stalk domain, human (His)₆-ASGPR H1 lectin domain and mouse (His)₆-ASGPR H1 extracellular domain were biotinylated and immobilised on a biacore Streptavidin chip surface.
# [3] = molecular target: T3, (His)6-Human ASGPR H1 Lectin Domain; assay: BIAcore, biotinylated antigen on a streptavidin chip, 60 nM dAb, 40 µl/min
# (His)6-Human ASGPR H1 [4] = molecular target: T4, (His)6-Human ASGPR H1; assay: BIAcore, biotinylated (His)6-ASGPR H1 on a streptavidin chip, 62 nM dAb, 40 µl/min
# Description: ( )to human (His)₆-ASGPR H1. Biotinylated (His)₆-ASGPR H1 was immobilised on a Biacore streptavidin chip surface and 62 nM dAb passed over at a flow rate of 40 μl.min⁻¹.
# [5] = molecular target: T3, (His)6-Human ASGPR H1 Lectin Domain; assay: BIAcore, biotinylated antigen on a streptavidin chip, FLAG-tagged dAb, 40 µl/min
# From the text: as §1
# (His)6-Mouse ASGPR H1 [6] = molecular target: T5, (His)6-Mouse ASGPR H1; assay: BIAcore, antigen coated on a CM5 chip, dAb at 2.5 µM
# Description: (§2) FIG. 3: Vκ and VH dAbs selected against recombinant human and mouse ASGPR proteins binding specifically to the target antigen. Antigens were coated on the surface of a CM5 BlAcore chip and protein L purified Vκ dAb DOM26m-20 (top panel) or protein A purified VH dAb DOM26h-61 (bottom panel) was passed over the chip surface at a concentration of 2.5 μM using a flow-rate of […]. In the top panel binding of dAb to (His)₆-mouse ASGPR H1 ( )or human c-kit (His)₆ negative control antigen ( ) is shown. In the bottom panel dAb binding to (His)₆-human ASGPR H1 ( )or human c-kit (His)₆ negative control antigen ( ) is shown.
# (§3) Screening by BlAcore took place using dAb supernatant expressed as above diluted 1:2 with HBS-P BlAcore running buffer. Each dAb was then injected over a blank flow cell and a flow cell coated with human or mouse (His)₆-ASGPR H1 on a CM5 chip. […] All unique dAb clones were expressed in 50 ml cultures (OnEX plus carbenicillin) overnight at 37° C. and purified on protein A (VH dAbs) or protein L (Vκ dAbs). Purified dAbs were passed over a CM5 BIAcore chip coated with either human or mouse (His)₆-ASGPR H1 at 20μg/ml (FIG. 3). Those dAbs that bound specifically to (His)₆-ASGPR H1 were then analysed in the flow cytometry cell binding assay (FIG. 4).
# [7] = molecular target: T6, human c-kit (His)6 negative control antigen (human, UniProt P10721 26-524, limits assumed); assay: BIAcore, antigens coated on a CM5 chip, human c-kit (His)6 as negative control antigen
# T6 construct: Control antigen
# T6 sequence (P10721 26-524 limits assumed): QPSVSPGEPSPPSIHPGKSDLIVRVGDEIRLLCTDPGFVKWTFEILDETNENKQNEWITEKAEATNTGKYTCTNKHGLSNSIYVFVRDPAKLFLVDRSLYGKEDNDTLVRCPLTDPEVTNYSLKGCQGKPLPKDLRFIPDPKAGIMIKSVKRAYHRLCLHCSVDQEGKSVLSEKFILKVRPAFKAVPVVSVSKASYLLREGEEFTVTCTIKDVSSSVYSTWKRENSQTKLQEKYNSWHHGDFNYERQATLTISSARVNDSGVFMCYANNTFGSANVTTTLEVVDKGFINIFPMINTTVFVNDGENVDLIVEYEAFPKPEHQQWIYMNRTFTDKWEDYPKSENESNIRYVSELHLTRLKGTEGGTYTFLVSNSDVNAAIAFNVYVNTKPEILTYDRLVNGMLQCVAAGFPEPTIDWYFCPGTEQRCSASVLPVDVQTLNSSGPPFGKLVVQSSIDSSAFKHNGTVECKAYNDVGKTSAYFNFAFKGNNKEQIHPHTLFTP
# Description: as §2, §3
# (His)6-Human ASGPR H1 [8] = molecular target: T4, (His)6-Human ASGPR H1; assay: BIAcore, antigen coated on a CM5 chip, dAb at 2.5 µM
# Description: as §2, §3
# (His)6-Mouse ASGPR H1 [9] = molecular target: T5, (His)6-Mouse ASGPR H1; assay: BIAcore epitope mapping, 1 µM dAb over (His)6 mouse ASGPR H1 on a CM5 chip
# Description: After coating a BlAcore CM5 chip with (His)₆ mouse ASGPR H1, protein A or protein L purified dAb proteins were injected one after the other and in combination over the same antigen surface. The resulting binding RUs were determined in order to see whether the maximal binding capacity of the chip by one dAb molecule can be exceeded by simultaneously injecting a second dAb onto the same antigen surface. If so, the second dAb clearly binds a different epitope compared to the first one. 1 μM concentrations of each dAb were injected at a flow rate of […], both in single injection and co-injection experiments. If injection of the second dAb in the presence of the first dAb reduced the observed binding to the chip surface by greater than 20% (in comparison to observed binding of the second dAb to the chip surface in the absence of the first dAb) both dAbs were assumed to bind overlapping epitopes within the antigen (FIG. 6). Based on results obtained in these experiments murine ASGPR specific dAb clones could be grouped according to epitopes bound within the antigen as shown in FIG. 12.
# (His)6-Mouse ASGPR H1 [10] = molecular target: T5, (His)6-Mouse ASGPR H1; assay: BIAcore, biotinylated antigen on a streptavidin chip, FLAG-tagged dAb, 40 µl/min
# From the text: as §1
binder,measurement,setting,value
B1,"counts in the liver (percent injected dose) 3 hours after intravenous injection of 111In labelled dAb in balb/c mice, against VH dummy 2",[1],4.9 fold
same,"counts in the liver (percent injected dose) 3 hours after intravenous injection of 111In labelled dAb in balb/c mice, against Vκ dummy",[1],12.4 fold
B2,"counts in the liver (percentage of injected dose) 3 hours after injection of DOTA-NHS conjugated, 111In labelled dAb in balb/c mice, against VH dummy 2",[1],~35 fold
same,binding result,[2],no binding (tested: 60 nM)
same,binding result,[3],binds
same,binding result,(His)6-Human ASGPR H1 [4],binds
B3,binding result,(His)6-Human ASGPR H1 [4],binds
B4,"counts in the liver (percentage of injected dose) 3 hours after injection of DOTA-NHS conjugated, 111In labelled dAb in balb/c mice, against Vκ dummy",[1],46 fold
same,binding result,[2],no binding
same,binding result,[5],binds
B5,binding result,(His)6-Mouse ASGPR H1 [6],binds
same,binding result,[7],no binding (tested: 2.5 µM)
B6,binding result,(His)6-Human ASGPR H1 [8],binds
same,binding result,[7],no binding (tested: 2.5 µM)
B7,binding result,(His)6-Mouse ASGPR H1 [9],binds
B8,binding result,(His)6-Mouse ASGPR H1 [9],binds
B9,binding result,(His)6-Mouse ASGPR H1 [9],binds
B10,binding result,(His)6-Mouse ASGPR H1 [9],binds
B11,binding result,(His)6-Mouse ASGPR H1 [9],binds
B12,binding result,[2],no binding
same,binding result,(His)6-Mouse ASGPR H1 [10],binds
same,binding result,[5],binds
B13,binding result,[2],no binding
same,binding result,(His)6-Mouse ASGPR H1 [10],binds
same,binding result,[5],binds
